Reference: the supplement of paper PMC11246515
± gives the standard deviation of the averaged measurements.

Experiment: total protein half-life in vivo (active degradation + dilution); higher = more stable protein
[1] = E. coli NCM3722 delta-clpP delta-lon delta-hslV, growth: N-lim chemostat, doubling time 6 h
[2] = E. coli NCM3722 delta-clpP, growth: N-lim chemostat, doubling time 6 h
[3] = E. coli NCM3722 delta-hslV, growth: N-lim chemostat, doubling time 6 h
[4] = E. coli NCM3722 delta-lon, growth: N-lim chemostat, doubling time 6 h
[5] = E. coli NCM3722 delta-smpB, growth: N-lim chemostat, doubling time 6 h
[6] = wild type E. coli NCM3722, growth: C-lim chemostat, doubling time 3 h
[7] = wild type E. coli NCM3722, growth: C-lim chemostat, doubling time 6 h
[8] = wild type E. coli NCM3722, growth: C-lim chemostat, doubling time 12 h
[9] = wild type E. coli NCM3722, growth: N-lim chemostat, doubling time 6 h
[10] = wild type E. coli NCM3722, growth: N-lim chemostat, doubling time 12 h
[11] = wild type E. coli NCM3722, growth: P-lim chemostat, doubling time 6 h
[12] = wild type E. coli NCM3722, growth: P-lim chemostat, doubling time 12 h

Sequence | total protein half-life in vivo [1] [h] | total protein half-life in vivo [2] [h] | total protein half-life in vivo [3] [h] | total protein half-life in vivo [4] [h] | total protein half-life in vivo [5] [h] | total protein half-life in vivo [6] [h] | total protein half-life in vivo [7] [h] | total protein half-life in vivo [8] [h] | total protein half-life in vivo [9] [h] | total protein half-life in vivo [10] [h] | total protein half-life in vivo [11] [h] | total protein half-life in vivo [12] [h]
MQRETVWLVEDEQGIADTLVYMLQQEGFAVEVFERGLPVLDKARKQVPDVMILDVGLPDISGFELCRQLLALHPALPVLFLTARSEEVDRLLGLEIGADDYVAKPFSPREVCARVRTLLRRVKKFSTPSPVIRIGHFELNEPAAQISWFDTPLALTRYEFLLLKTLLKSPGRVWSRQQLMDSVWEDAQDTYDRTVDTHIKTLRAKLRAINPDLSPINTHRGMGYSLRGL | 5.69 ± 1.5 | 4.02 ± 0.41 | 3.55 | 4.49 ± 0.45 | 3.92 | 2.74 ± 0.18 | 4.86 ± 0.057 | 11.5 ± 3.6 | 3.99 | 6.73 ± 0.16 | 4.04 | 7.89 ± 0.58
MSGLKQELGLAQGIGLLSTSLLGTGVFAVPALAALVAGNNSLWAWPVLIILVFPIAIVFAILGRHYPSAGGVAHFVGMAFGSRLERVTGWLFLSVIPVGLPAALQIAAGFGQAMFGWHSWQLLLAELGTLALVWYIGTRGASSSANLQTVIAGLIVALIVAIWWAGDIKPANIPFPAPGNIELTGLFAALSVMFWCFVGLEAFAHLASEFKNPERDFPRALMIGLLLAGLVYWGCTVVVLHFDAYGEKMAAAASLPKIVVQLFGVGALWIACVIGYLACFASLNIYIQSFARLVWSQAQHNPDHYLARLSSRHIPNNALNAVLGCCVVSTLVIHALEINLDALIIYANGIFIMIYLLCMLAGCKLLQGRYRLLAVVGGLLCVLLLAMVGWKSLYALIMLAGLWLLLPKRKTPENGITT |  |  |  | 3.09 | 5.32 |  |  |  |  |  | 4.1 | 12
MKTGSEFHVGIVGLGSMGMGAALSYVRAGLSTWGADLNSNACATLKEAGACGVSDNAATFAEKLDALLVLVVNAAQVKQVLFGETGVAQHLKPGTAVMVSSTIASADAQEIATALAGFDLEMLDAPVSGGAVKAANGEMTVMASGSDIAFERLAPVLEAVAGKVYRIGAEPGLGSTVKIIHQLLAGVHIAAGAEAMALAARAGIPLDVMYDVVTNAAGNSWMFENRMRHVVDGDYTPHSAVDIFVKDLGLVADTAKALHFPLPLASTALNMFTSASNAGYGKEDDSAVIKIFSGITLPGAKS | 5.94 |  |  |  |  | 0.261 | 0.509 | 1.69 ± 1.5 |  |  |  | 
MSNAITMGIFWHLIGAASAACFYAPFKKVKKWSWETMWSVGGIVSWIILPWAISALLLPNFWAYYSSFSLSTRLPVFLFGAMWGIGNINYGLTMRYLGMSMGIGIAIGITLIVGTLMTPIINGNFDVLISTEGGRMTLLGVLVALIGVGIVTRAGQLKERKMGIKAEEFNLKKGLVLAVMCGIFSAGMSFAMNAAKPMHEAAAALGVDPLYVALPSYVVIMGGGAIINLGFCFIRLAKVKDLSLKADFSLAKSLIIHNVLLSTLGGLMWYLQFFFYAWGHARIPAQYDYISWMLHMSFYVLCGGIVGLVLKEWNNAGRRPVTVLSLGCVVIIVAANIVGIGMAN |  |  |  |  |  |  |  |  |  | 7.44 |  | 
MTRPVTLSEPHFSQHTLNKYASLMAQGNGYLGLRASHEEDYTRQTRGMYLAGLYHRAGKGEINELVNLPDVVGMEIAINGEVFSLSHEAWQRELDFASGELRRNVVWRTSNGSGYTIASRRFVSADQLPLIALEITITPLDADASVLISTGIDATQTNHGRQHLDETQVRVFGQHLMQGSYTTQDGRSDVAISCCCKVSGDVQQCYTAKERRLLQHTSAQLHAGETMTLQKLVWIDWRDDRQAALDEWGSASLRQLEMCAQQSYDQLLAASTENWRQWWQKRRITVNGGEAHDQQALDYALYHLRIMTPAHDERSSIAAKGLTGEGYKGHVFWDTEVFLLPFHLFSDPTVARSLLRYRWHNLPGAQEKARRNGWQGALFPWESARSGEEETPEFAAINIRTGLRQKVASAQAEHHLVADIAWAVIQYWQTTGDESFIAHEGMALLLETAKFWISRAVRVNDRLEIHDVIGPDEYTEHVNNNAYTSYMARYNVQQALNIARQFGCSDDAFIHRAEMFLKELWMPEIQPDGVLPQDDSFMAKPAINLAKYKAAAGKQTILLDYSRAEVNEMQILKQADVVMLNYMLPEQFSAASCLANLQFYEPRTIHDSSLSKAIHGIVAARCGLLTQSYQFWREGTEIDLGADPHSCDDGIHAAATGAIWLGAIQGFAGVSVRDGELHLNPALPEQWQQLSFPLFWQGCELQVTLDAQRIAIRTSAPVSLRLNGQLITVAEESVFCLGDFILPFNGTATKHQEDE | 5.63 |  |  |  |  |  |  |  |  |  |  | 
MADVHDKATRSKNMRAIATRDTAIEKRLASLLTGQGLAFRVQDASLPGRPDFVVDEYRCVIFTHGCFWHHHHCYLFKVPATRTEFWLEKIGKNVERDRRDISRLQELGWRVLIVWECALRGREKLTDEALTERLEEWICGEGASAQIDTQGIHLLA | 5.56 | 4.58 ± 0.72 | 3.63 ± 0.22 | 3.67 | 4.35 ± 1.4 |  | 4.16 | 8.92 | 3.98 ± 0.43 | 5.45 ± 0.16 | 3.9 ± 0.41 | 9.27 ± 3.3
MKTRIHVVQGDITKLAVDVIVNAANPSLMGGGGVDGAIHRAAGPALLDACLKVRQQQGDCPTGHAVITLAGDLPAKAVVHTVGPVWRGGEQNEDQLLQDAYLNSLRLVAANSYTSVAFPAISTGVYGYPRAAAAEIAVKTVSEFITRHALPEQVYFVCYDEENAHLYERLLTQQGDE [P0A8D6] |  | 4.32 ± 0.98 | 4.02 ± 0.17 | 4.294 ± 0.033 | 3.89 ± 0.28 |  | 5.89 ± 0.66 | 9.58 ± 0.72 | 4.63 ± 0.32 | 6.81 ± 0.32 | 5.95 ± 0.57 | 12 ± 0.23
MHVTLVEINVHEDKVDEFIEVFRQNHLGSVQEEGNLRFDVLQDPEVNSRFYIYEAYKDEDAVAFHKTTPHYKTCVAKLESLMTGPRKKRLFNGLMP | 4.55 ± 0.72 | 2.71 | > 8 | 3 ± 0.2 |  | 2.49 ± 0.49 | 3.66 ± 0.24 | 3.93 ± 0.26 | 2.69 | 4.86 |  | 
MRRFFWLVAAALLLAGCAGEKGIVEKEGYQLDTRRQAQAAYPRIKVLVIHYTADDFDSSLATLTDKQVSSHYLVPAVPPRYNGKPRIWQLVPEQELAWHAGISAWRGATRLNDTSIGIELENRGWQKSAGVKYFAPFEPAQIQALIPLAKDIIARYHIKPENVVAHADIAPQRKDDPGPLFPWQQLAQQGIGAWPDAQRVNFYLAGRAPHTPVDTASLLELLARYGYDVKPDMTPREQRRVIMAFQMHFRPTLYNGEADAETQAIAEALLEKYGQD | 6.4 ± 0.46 | 6.3559 ± 0.0044 | 6.75 ± 0.56 | 7.41 ± 0.34 | 5.75 ± 0.39 | 3.0599 ± 3.5e-05 |  | 11.2 ± 0.38 |  | 12.4 ± 0.43 | 5.63 ± 1.1 | 13.9 ± 1.3
